In patent publication US20250304644A1, “PEPTIDES TRIPLE AGONISTS OF GIP, GLP-1 AND GLP-2” (BAINAN BIOTECH APS, priority 2021, published 2025):
*1 amine or outer side, *2 acyl side, *3 side chain or, on linkers, in order; H or OH if unused. Where a SMILES comes first, the peptide text is derived from it. Where no end group is shown, it is not given here. Side-chain parts run from the residue outwards. [ ]: non-standard residue; d: D form. The star is where a group is joined. C18 diacid = O=C(O)CCCCCCCCCCCCCCCCC(=O)*; γGlu = O=C(O)[C@H](CCC(=O)[*:2])N[*:1]; AEEA = NCCOCCOCC(=O)O; Aib = CC(C)(N)C(=O)O

T1: human GIPR (Homo sapiens, UniProt P48546)
T1 construct: host or cells: COS-7
T1 sequence (P48546 22-466): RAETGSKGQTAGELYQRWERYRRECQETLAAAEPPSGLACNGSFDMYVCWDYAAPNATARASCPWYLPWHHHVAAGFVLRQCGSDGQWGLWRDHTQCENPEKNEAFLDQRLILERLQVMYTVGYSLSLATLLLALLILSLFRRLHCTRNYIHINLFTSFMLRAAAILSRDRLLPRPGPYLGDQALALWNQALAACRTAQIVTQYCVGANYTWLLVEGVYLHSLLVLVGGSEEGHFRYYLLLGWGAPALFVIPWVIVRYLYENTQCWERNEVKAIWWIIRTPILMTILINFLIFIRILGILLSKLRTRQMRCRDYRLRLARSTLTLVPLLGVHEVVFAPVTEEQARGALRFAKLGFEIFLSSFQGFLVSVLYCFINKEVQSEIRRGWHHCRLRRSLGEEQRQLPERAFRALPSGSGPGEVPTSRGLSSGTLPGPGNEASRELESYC

T2: human GLP-2R (Homo sapiens, UniProt O95838)
T2 construct: host or cells: COS-7
T2 sequence (O95838 1-553): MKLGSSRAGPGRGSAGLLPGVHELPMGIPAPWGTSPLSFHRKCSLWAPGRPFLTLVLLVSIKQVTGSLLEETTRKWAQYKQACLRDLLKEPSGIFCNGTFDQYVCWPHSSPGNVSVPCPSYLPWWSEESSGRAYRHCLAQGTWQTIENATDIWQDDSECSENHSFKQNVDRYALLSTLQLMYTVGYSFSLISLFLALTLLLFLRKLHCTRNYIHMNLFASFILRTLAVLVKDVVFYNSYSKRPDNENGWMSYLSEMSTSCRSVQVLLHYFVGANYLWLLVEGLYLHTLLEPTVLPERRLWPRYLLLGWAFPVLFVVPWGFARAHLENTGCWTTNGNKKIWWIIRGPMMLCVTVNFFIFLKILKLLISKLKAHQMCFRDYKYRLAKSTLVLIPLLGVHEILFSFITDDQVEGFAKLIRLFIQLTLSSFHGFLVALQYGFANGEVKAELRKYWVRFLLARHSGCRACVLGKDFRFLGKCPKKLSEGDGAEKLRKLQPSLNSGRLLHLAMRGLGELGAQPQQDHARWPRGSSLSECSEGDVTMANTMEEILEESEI

T3: human SNAP-tagged GIPR (Homo sapiens, UniProt P48546)
T3 construct: host or cells: HEK293A
T3 sequence (P48546 22-466): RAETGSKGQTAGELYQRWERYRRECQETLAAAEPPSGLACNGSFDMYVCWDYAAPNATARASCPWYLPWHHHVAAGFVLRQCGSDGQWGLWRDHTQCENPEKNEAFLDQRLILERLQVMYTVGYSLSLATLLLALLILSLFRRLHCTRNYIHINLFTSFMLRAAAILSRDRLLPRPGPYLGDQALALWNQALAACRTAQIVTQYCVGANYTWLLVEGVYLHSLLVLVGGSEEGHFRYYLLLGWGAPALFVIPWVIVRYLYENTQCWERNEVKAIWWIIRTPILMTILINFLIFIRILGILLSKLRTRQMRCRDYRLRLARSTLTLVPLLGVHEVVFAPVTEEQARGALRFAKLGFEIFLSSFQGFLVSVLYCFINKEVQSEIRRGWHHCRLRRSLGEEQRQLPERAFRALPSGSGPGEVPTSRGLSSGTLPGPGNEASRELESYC

T4: human SNP-tagged GLP-2R (Homo sapiens, UniProt O95838)
T4 construct: expressed in transfected cells; host or cells: HEK293A
T4 sequence (O95838 1-553): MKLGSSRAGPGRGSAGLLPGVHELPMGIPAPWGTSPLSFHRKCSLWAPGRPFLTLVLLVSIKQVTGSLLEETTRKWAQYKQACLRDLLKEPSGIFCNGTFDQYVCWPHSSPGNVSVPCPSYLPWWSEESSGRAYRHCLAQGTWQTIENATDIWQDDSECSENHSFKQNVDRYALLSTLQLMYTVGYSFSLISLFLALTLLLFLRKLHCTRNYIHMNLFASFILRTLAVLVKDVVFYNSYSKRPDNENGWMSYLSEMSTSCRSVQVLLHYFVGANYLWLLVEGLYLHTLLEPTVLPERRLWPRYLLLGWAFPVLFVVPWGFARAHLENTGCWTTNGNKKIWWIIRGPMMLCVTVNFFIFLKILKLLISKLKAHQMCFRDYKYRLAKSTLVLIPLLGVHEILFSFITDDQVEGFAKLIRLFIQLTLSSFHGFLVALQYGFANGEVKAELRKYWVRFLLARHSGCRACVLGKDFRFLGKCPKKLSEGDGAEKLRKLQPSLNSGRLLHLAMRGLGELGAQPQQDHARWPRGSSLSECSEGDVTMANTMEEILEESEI

T5: human GIPR (glucose-dependent insulinotropic polypeptide receptor) (human, UniProt P48546 22-466)
T5 sequence (looked up): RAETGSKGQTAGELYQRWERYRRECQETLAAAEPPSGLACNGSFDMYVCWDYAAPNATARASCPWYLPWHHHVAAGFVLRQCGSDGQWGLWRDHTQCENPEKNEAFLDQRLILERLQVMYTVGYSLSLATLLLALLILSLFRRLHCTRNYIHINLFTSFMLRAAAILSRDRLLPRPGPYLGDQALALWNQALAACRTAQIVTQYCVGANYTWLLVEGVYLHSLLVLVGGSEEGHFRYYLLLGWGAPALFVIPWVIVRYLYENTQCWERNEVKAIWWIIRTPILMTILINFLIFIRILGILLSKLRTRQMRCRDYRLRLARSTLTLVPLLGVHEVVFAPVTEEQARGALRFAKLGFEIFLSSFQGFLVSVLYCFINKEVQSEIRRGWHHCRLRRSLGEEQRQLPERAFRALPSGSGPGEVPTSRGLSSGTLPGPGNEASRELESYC

T6: human GLP-2R (glucagon-like peptide-2 receptor) (human, UniProt O95838 1-553)
T6 sequence (looked up): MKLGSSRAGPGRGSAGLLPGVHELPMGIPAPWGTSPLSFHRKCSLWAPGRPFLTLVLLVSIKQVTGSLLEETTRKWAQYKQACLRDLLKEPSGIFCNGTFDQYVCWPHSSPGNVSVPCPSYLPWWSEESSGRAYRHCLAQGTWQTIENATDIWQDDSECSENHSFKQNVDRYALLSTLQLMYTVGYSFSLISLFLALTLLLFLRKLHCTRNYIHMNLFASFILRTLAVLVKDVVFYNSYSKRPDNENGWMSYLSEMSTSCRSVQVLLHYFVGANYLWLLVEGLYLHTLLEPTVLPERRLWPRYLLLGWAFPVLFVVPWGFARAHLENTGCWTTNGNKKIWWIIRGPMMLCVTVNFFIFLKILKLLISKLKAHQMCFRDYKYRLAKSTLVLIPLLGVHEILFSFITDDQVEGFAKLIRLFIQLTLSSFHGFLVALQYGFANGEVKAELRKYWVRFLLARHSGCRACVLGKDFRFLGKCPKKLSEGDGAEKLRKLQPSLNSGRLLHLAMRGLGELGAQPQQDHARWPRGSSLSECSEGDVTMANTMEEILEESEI

T7: Human N-terminally SNAP-tagged GIPR (human, UniProt P48546 22-466, SNAP tag labeled with Tag-Lite SNAP-Lumi4-Tb)
T7 sequence (looked up): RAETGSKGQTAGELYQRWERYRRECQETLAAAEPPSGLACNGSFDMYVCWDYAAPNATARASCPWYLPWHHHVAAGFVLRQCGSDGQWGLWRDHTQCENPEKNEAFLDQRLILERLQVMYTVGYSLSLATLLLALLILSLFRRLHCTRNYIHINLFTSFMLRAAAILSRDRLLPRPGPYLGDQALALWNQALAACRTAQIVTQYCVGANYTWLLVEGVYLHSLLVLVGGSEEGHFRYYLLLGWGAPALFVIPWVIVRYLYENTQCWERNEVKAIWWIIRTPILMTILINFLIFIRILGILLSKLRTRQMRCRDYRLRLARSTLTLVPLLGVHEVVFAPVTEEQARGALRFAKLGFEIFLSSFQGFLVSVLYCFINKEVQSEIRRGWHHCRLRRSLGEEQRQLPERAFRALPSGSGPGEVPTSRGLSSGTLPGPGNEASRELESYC


How the values were obtained:
human GIPR = molecular target: T1, human GIPR; assay: cAMP assay (HitHunter) in transiently transfected COS-7 cells expressing human GIPR; assay type: cell-based; conditions: COS-7; normalized to highest concentration of the endogenous ligand; read-out: Efficacy GIPR (Emax)
human GLP-2R = molecular target: T2, human GLP-2R; assay: cAMP assay (HitHunter) in transiently transfected COS-7 cells expressing human GLP-2R; assay type: cell-based; conditions: COS-7; normalized to highest concentration of the endogenous ligand; read-out: Efficacy GLP-2R (Emax)
human GLP-1R = molecular target: T8, human GLP-1R (Homo sapiens, UniProt P43220); assay: cAMP assay (HitHunter) in transiently transfected COS-7 cells expressing human GLP-1R; assay type: cell-based; conditions: COS-7; normalized to highest concentration of the endogenous ligand; read-out: Efficacy GLP-1R (Emax)
T8 construct: host or cells: COS-7
T8 sequence (P43220 24-463): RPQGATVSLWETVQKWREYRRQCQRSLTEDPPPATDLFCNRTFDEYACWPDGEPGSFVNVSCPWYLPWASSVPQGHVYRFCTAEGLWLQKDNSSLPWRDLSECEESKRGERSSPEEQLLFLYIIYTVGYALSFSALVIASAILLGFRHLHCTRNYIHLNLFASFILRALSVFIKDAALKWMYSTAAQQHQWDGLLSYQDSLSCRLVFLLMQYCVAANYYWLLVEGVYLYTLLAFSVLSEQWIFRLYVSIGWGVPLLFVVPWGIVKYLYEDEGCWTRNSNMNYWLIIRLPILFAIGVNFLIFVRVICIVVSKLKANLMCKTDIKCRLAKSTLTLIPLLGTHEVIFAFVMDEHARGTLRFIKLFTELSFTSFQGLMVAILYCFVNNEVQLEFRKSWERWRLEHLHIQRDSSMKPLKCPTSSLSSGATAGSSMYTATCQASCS

human SNAP-tagged GIPR = molecular target: T3, human SNAP-tagged GIPR; assay: Receptor internalization assay, HEK293A cells expressing human SNAP-tagged GIPR; assay type: cell-based; conditions: AUC of sigmoid curves up to 1 μM; 60 minutes at 37° C.
human SNAP-tagged GLP-1R = molecular target: T9, human SNAP-tagged GLP-1R (Homo sapiens, UniProt P43220); assay: Receptor internalization assay, HEK293A cells expressing human SNAP-tagged GLP-1R; assay type: cell-based; conditions: AUC of sigmoid curves up to 1 μM; 60 minutes at 37° C.
T9 construct: expressed in transfected cells; host or cells: HEK293A
T9 sequence (P43220 24-463): as above

human SNP-tagged GLP-2R = molecular target: T4, human SNP-tagged GLP-2R; assay: Receptor internalization assay, HEK293A cells expressing human SNAP-tagged GLP-2R; assay type: cell-based; conditions: AUC of sigmoid curves up to 1 μM; 60 minutes at 37° C.
[1] = molecular target: T5, human GIPR (glucose-dependent …); assay: cell-based or functional assay
[2] = molecular target: T6, human GLP-2R (glucagon-like peptide-2 …); assay: cell-based or functional assay
[3] = molecular target: human GLP-1R (glucagon-like peptide-1 receptor) (human, UniProt P43220 24-463); assay: cell-based or functional assay
[4] = molecular target: T7, Human N-terminally SNAP-tagged GIPR; assay: cell-based or functional assay

Emax (human GIPR)	Emax (human GLP-2R)	Emax (human GLP-1R)	Absolute hGIPR internalization (AUC) (human SNAP-tagged GIPR)	Absolute hGLP-1R internalization (AUC) (human SNAP-tagged GLP-1R)	Absolute hGLP-2R internalization (AUC) (human SNP-tagged GLP-2R)	EC50 (nM) GIPR [1]	Efficacy GIPR [1]	pEC50 GIPR [1]	EC50 (nM) GLP-2R [2]	Efficacy GLP-2R [2]	logEC50 GLP-2R [2]	EC50 (nM) GLP-1R [3]	Efficacy GLP-1R [3]	logEC50 GLP-1R [3]	Absolute hGIPR internalization (AUC) [4]	Relative hGIPR internalization (%) [4]	Molecule
103%	91%	97%	14.7	6.0	8.0	–	–	–	–	–	–	–	–	–	–	–	CC[C@H](C)[C@H](NC(=O)[C@H](Cc1ccccc1)NC(=O)[C@H](CC(=O)O)NC(=O)[C@H](CCCNC(=N)N)NC(=O)[C@H](C)NC(=O)[C@H](C)NC(=O)[C@H](CC(C)C)NC(=O)[C@H](CC(N)=O)NC(=O)[C@H](CC(=O)O)NC(=O)[C@H](CC(C)C)NC(=O)[C@@H](NC(=O)[C@@H](NC(=O)[C@H](CO)NC(=O)[C@H](Cc1ccc(O)cc1)NC(=O)[C@H](CC(=O)O)NC(=O)[C@H](CO)NC(=O)[C@@H](NC(=O)[C@H](Cc1ccccc1)NC(=O)[C@@H](NC(=O)CNC(=O)[C@H](CC(=O)O)NC(=O)[C@H](C)NC(=O)[C@@H](N)Cc1c[nH]cn1)[C@@H](C)O)[C@@H](C)CC)[C@@H](C)O)[C@@H](C)CC)C(=O)N[C@@H](CC(N)=O)C(=O)N[C@@H](Cc1c[nH]c2ccccc12)C(=O)N[C@@H](CC(C)C)C(=O)N[C@H](C(=O)N[C@@H](CCC(N)=O)C(=O)N[C@H](C(=O)N[C@@H](CCCCN)C(=O)NCC(=O)N[C@@H](CCCCN)C(=O)N[C@@H](CCCCN)C(=O)N[C@@H](CCCCNC(=O)COCCOCCNC(=O)COCCOCCNC(=O)CC[C@H](NC(=O)CCCCCCCCCCCCCCCCC(=O)O)C(=O)O)C(=O)O)[C@@H](C)O)[C@@H](C)CC [Compound 34] (H-HADGTFISDYSTILDNLAARDFINWLIQTKGKKK([AEEA-AEEA-γGlu-C18 diacid])-OH; N-terminus assumed)
–	–	–	–	–	–	0.562 nM	124	9.3	3.2 nM	85	8.5	0.05 nM	115	10.3	9 AUC	24%	HADGTFTSDYST[Aib]LDKLAARDFINWLIQTKGKKNDWKHNITQK([AEEA-AEEA-γGlu-C18 diacid])-OH [Compound 27]
